In the supplement of paper PMC10567573:

B1: ARL6IP1 (parent)
chain: YLDPSVLSGVSCFVMFLCLADYLV

Variants of: B1
Experiment: protein stability index of a GFP-peptide fusion (GPS, HEK-293T) (PSI 1-6); higher = more stable
Conditions: c terminus: a fixed tail appended
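Also: lentivirally expressed fusions sorted by FACS into six bins by GFP to DsRed ratio, PSI derived from sequencing read proportions per bin multiplied by bin number.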

Point of comparison: YLDPSVLSGVSPFVMFLCLADYLV [C12P], protein stability index 3.54. Against it:
- YLDPSVLSGVSCFVMFLYLADYLV [C18Y] — lower, 1.96
- YLDPSVLSGVSCFVMFLNLADYLV [C18N] — lower, 2.68
- YLDPSVLSGVSCFVMFLRLADYLV [C18R] — lower, 2.65
- YLDPSVLSGVSCFVMFLALADYLV [C18A] — lower, 1.91
- YLDPSVLSGVSCFVMFLVLADYLV [C18V] — lower, 2.09
- YLDPSVLSGVSCFVMFLLLADYLV [C18L] — the same, 3.54
- YLDPSVLSGVSCFVMFLKLADYLV [C18K] — lower, 2.37
- YLDPSVLSGVSCFVMFLHLADYLV [C18H] — lower, 2.85
- YLDPSVLSGVSCFVMFLTLADYLV [C18T] — lower, 3.26
- YLDPSVLSGVSCFVMFLGLADYLV [C18G] — lower, 2.47
- YLDPSVLSGVSCFVMFLFLADYLV [C18F] — lower, 3.35
- YLDPSVLSGVSCFVMFLQLADYLV [C18Q] — lower, 2.01
- YLDPSVLSGLSCFVMFLCLADYLV [V10L] — lower, 2.97
- YLDPSVLSGTSCFVMFLCLADYLV [V10T] — lower, 1.56
- YLDPSVLSGASCFVMFLCLADYLV [V10A] — lower, 3.22
- YLDPSVLSGQSCFVMFLCLADYLV [V10Q] — lower, 2.89
- YLDPSVLSGMSCFVMFLCLADYLV [V10M] — lower, 2.44
- YLDPSVLSGNSCFVMFLCLADYLV [V10N] — lower, 3.52
- YLDPSVLSGFSCFVMFLCLADYLV [V10F] — lower, 3.19
- YLDPSVLSGHSCFVMFLCLADYLV [V10H] — lower, 2.26
- YLDPSVLSGCSCFVMFLCLADYLV [V10C] — lower, 2.61
- YLDPSVLSGESCFVMFLCLADYLV [V10E] — lower, 2.67
- YLDPSVLSGKSCFVMFLCLADYLV [V10K] — lower, 2.46
- YLDPSVLSGWSCFVMFLCLADYLV [V10W] — lower, 2.21
- YLDPSVLSGYSCFVMFLCLADYLV [V10Y] — lower, 2.38
- YLDPSVLSGDSCFVMFLCLADYLV [V10D] — lower, 2.93
- YLDPSVLSGISCFVMFLCLADYLV [V10I] — lower, 3.18
- YLDPSVLSGSSCFVMFLCLADYLV [V10S] — lower, 3.4
- YLDPSVLSGPSCFVMFLCLADYLV [V10P] — lower, 3.06
- YLDPSVLSGVFCFVMFLCLADYLV [S11F] — lower, 2.24
- YLDPSVLSGVPCFVMFLCLADYLV [S11P] — lower, 3.52
- YLDPSVLSGVHCFVMFLCLADYLV [S11H] — lower, 2.62
- YLDPSVLSGVYCFVMFLCLADYLV [S11Y] — higher, 3.78
- YLDPSVLSGVCCFVMFLCLADYLV [S11C] — lower, 3.23
- YLDPSVLSGVGCFVMFLCLADYLV [S11G] — lower, 3.42
- YLDPSVLSGVVCFVMFLCLADYLV [S11V] — higher, 4.17
- YLDPSVLSGVECFVMFLCLADYLV [S11E] — higher, 4.25
- YLDPSVLSGVSCFVMFLCTADYLV [L19T] — lower, 2.74
- YLDPSVLSGVSCFVMFLCEADYLV [L19E] — higher, 3.85
- YLDPSVLSGVSCFVMFLCSADYLV [L19S] — higher, 3.89
- YLDPSVLSGVSCFVMFLCHADYLV [L19H] — lower, 3.03
- YLDPSVLSGVSCFVMFLCAADYLV [L19A] — lower, 2.42
- YLDPSVLSGVSCFVMFLCYADYLV [L19Y] — lower, 1.85
- YLDPSVLSGVSCFVMFLCDADYLV [L19D] — lower, 2.98
- YLDPSVLSGVSCFVMFLCRADYLV [L19R] — lower, 2.38
- YLDPSVLSGVSCFVMFLCKADYLV [L19K] — lower, 2.81
- YLDPSVLSGVSCFVMFLCMADYLV [L19M] — lower, 2.06
- YLDPSVLSGVSCFVMFLCNADYLV [L19N] — lower, 2.57
- YLDPSVLSGVSCFVMFLCQADYLV [L19Q] — lower, 2.06
- YLDPSVLSGVSCFVMFLCWADYLV [L19W] — lower, 1.73
- YLDPSVLSGVSCFVMFLCFADYLV [L19F] — lower, 2.56
- YLDPSVLSGVSCFVMFLCCADYLV [L19C] — higher, 4.14
- YLDPSVLSGVSCFVMFLCPADYLV [L19P] — lower, 2.1
- YLDPSVLSGVSCFVMFGCLADYLV [L17G] — higher, 4.55
- YLDPSVLSGVSCFVMFKCLADYLV [L17K] — higher, 3.75
- YLDPSVLSGVSCFVMFACLADYLV [L17A] — lower, 2.34
- YLDPSVLSGVSCFVMFFCLADYLV [L17F] — lower, 2.82
- YLDPSVLSGVSCFVMFRCLADYLV [L17R] — lower, 2.54
- YLDPSVLSGVSCFVMFWCLADYLV [L17W] — lower, 3.18
- YLDPSVLSGVSCFVMFMCLADYLV [L17M] — higher, 4.66
- YLDPSVLSGVSCFVMFHCLADYLV [L17H] — lower, 2.4
- YLDPSVLSGVSCFVMFTCLADYLV [L17T] — lower, 3.26
- YLDPSVLSGVSCFVMFVCLADYLV [L17V] — lower, 2.2
- YLDPSVLSGVSCFVMFSCLADYLV [L17S] — lower, 1.35
- YLDPSVLSGVSCFVMFDCLADYLV [L17D] — lower, 2.49
- YLDPSVLSGVSCAVMFLCLADYLV [F13A] — higher, 3.86
- YLDPSVLSGVSCKVMFLCLADYLV [F13K] — lower, 2.38
- YLDPSVLSGVSCYVMFLCLADYLV [F13Y] — higher, 3.73
- YLDPSVLSGVSCCVMFLCLADYLV [F13C] — lower, 2.92
- YLDPSVLSGVSCNVMFLCLADYLV [F13N] — lower, 2.42
- YLDPSVLSGVSCIVMFLCLADYLV [F13I] — lower, 2.81
- YLDPSVLSGVSCDVMFLCLADYLV [F13D] — lower, 2.64
- YLDPSVLSGVSCWVMFLCLADYLV [F13W] — higher, 3.83
- YLDPSVLSGVSCTVMFLCLADYLV [F13T] — higher, 4.33
- YLDPSVLSGVSCQVMFLCLADYLV [F13Q] — higher, 3.58
- YLDPSVLCGVSCFVMFLCLADYLV [S8C] — higher, 3.59
- YLDPSVLMGVSCFVMFLCLADYLV [S8M] — lower, 2.26
- YLDPSVLGGVSCFVMFLCLADYLV [S8G] — higher, 3.79
- YLDPSVLLGVSCFVMFLCLADYLV [S8L] — higher, 3.77
- YLDPSVLIGVSCFVMFLCLADYLV [S8I] — lower, 2.96
- YLDPSVLVGVSCFVMFLCLADYLV [S8V] — higher, 3.82
- YLDPSVLTGVSCFVMFLCLADYLV [S8T] — lower, 2.79
- YLDPSVLNGVSCFVMFLCLADYLV [S8N] — lower, 3.35
- YLDPSVLHGVSCFVMFLCLADYLV [S8H] — higher, 3.58
- YLDPSVLRGVSCFVMFLCLADYLV [S8R] — lower, 2.95
- YLDPSVLFGVSCFVMFLCLADYLV [S8F] — lower, 3.22
- YLDPSVLSGVSSFVMFLCLADYLV [C12S] — lower, 1.48
- YLDPSVLSGVSVFVMFLCLADYLV [C12V] — higher, 3.66
- YLDPSVLSGVSYFVMFLCLADYLV [C12Y] — lower, 2.47
- YLDPSVLSGVSMFVMFLCLADYLV [C12M] — lower, 2.56
- YLDPSVLSGVSFFVMFLCLADYLV [C12F] — lower, 2.47
- YLDPSVLSGVSAFVMFLCLADYLV [C12A] — lower, 3.07
- YLDPSVLSGVSTFVMFLCLADYLV [C12T] — lower, 2.24
